# Numbered stars: 1 amine (or outer) side, 2 acyl side, 3 side chain; on linkers, the order of the positions; unused ones are H or OH. Bridge positions count the residues as written; N and C are the ends. Side chains are listed from the residue outwards. Ends that are not written are not given here. * marks the point of attachment. C20 diacid = O=C(O)CCCCCCCCCCCCCCCCCCC(=O)*; γGlu = O=C(O)[C@H](CCC(=O)[*:2])N[*:1]; AEEA = NCCOCCOCC(=O)O
# T1: human calcitonin receptor (human, UniProt P30988 25-474)
# T1 sequence (looked up): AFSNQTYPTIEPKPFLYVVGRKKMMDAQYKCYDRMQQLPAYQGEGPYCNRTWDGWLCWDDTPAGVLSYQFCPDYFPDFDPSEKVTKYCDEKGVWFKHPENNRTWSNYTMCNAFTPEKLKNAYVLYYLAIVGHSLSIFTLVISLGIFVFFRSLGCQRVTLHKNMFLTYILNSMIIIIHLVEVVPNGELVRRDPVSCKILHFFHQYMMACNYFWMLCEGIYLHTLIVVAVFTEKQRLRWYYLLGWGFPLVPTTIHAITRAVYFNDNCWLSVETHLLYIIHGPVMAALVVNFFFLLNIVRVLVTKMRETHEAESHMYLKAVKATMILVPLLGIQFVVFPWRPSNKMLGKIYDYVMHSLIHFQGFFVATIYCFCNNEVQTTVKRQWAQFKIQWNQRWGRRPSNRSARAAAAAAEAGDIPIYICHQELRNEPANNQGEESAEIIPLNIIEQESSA
# T2: human calcitonin receptor (human, UniProt P30988 25-474)
# T2 construct: whole, on cells; Used as membranes prepared from the transfected cells (Assay VII); also called hCTR; hCT
# T2 sequence (looked up): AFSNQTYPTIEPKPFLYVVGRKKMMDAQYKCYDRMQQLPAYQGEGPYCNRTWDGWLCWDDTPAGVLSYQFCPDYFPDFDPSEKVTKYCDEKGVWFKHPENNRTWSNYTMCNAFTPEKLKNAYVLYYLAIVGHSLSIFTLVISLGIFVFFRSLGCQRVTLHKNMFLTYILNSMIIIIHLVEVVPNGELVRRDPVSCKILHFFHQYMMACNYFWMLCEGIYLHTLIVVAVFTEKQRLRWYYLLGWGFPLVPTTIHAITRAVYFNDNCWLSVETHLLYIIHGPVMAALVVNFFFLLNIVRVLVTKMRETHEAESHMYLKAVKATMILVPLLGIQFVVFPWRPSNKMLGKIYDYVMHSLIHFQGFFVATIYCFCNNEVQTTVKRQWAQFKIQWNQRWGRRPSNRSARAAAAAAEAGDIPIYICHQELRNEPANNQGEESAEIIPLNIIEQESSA
# Key:
# [1] = biological target: T1, human calcitonin receptor; experiment: cell-based or functional assay
# [2] = biological target: T2, human calcitonin receptor; experiment: ratio IC50 human calcitonin receptor / IC50 human amylin receptor (Assays VII and V)
# Procedure: The resulting pellet was resuspended, homogenized and centrifuged (20.000 rpm, 15 min) in a buffer containing 20 mM Na-HEPES and 0.1 mM EDTA (pH 7.4, buffer 2). The resulting pellet was resuspended in buffer 2 and protein concentration was measured (BCA protein Assay, Pierce). The homogenate was kept cold during the whole procedure. The membranes were kept at −80° C. until use. The assay was performed in a 384 well Optiplate (PerkinElmer) in a total volume of 40 ul. Membranes were mixed with SPA beads. Final concentration of membranes 35 ng/μL final and SPA beads was 0.05 mg/well. Test-compounds were dissolved in DMSO and further diluted in assay buffer (50 mM Hepes, pH 7.4, 1 mM CaCl2, 5 mM MgCl₂, 0.1% OA and 0.02% Tween20). […] The final mixture was incubated with shaking at 400 rpm for 120 min at 25° C. prior to centrifugation (1500 rpm, 10 min). Samples were analyzed on TopCounter™ (Packard). The IC₅₀ was calculated using (one site binding competition analysis) GraphPad Prism5 as a measure of receptor affinity.
# Membranes were prepared in the following way; the cells were rinsed with PBS and incubated with Versene for approximately 5 min before harvesting. The cells were flushed with PBS and the cell-suspension was centrifuged for 5 min at 1000 rpm. Cells were homogenized (Ultrathurrax) in a buffer containing 20 mM Na-HEPES and 10 mM EDTA (pH 7.4) and centrifuged at 20.000 rpm for 15 min. The resulting pellet was resuspended, homogenized and centrifuged (20.000 rpm, 15 min) in a buffer containing 20 mM Na-HEPES and 0.1 mM EDTA (pH 7.4, buffer 2). The resulting pellet was resuspended in buffer 2 and protein concentration was measured (BCA protein Assay, Pierce). The homogenate was kept cold during the whole procedure. The membranes were kept at −80° C. until use. Assay was performed in a 384 well Optiplate (PerkinElmer) in a total volume of 40 ul. Membranes were mixed with SPA beads.
Binder,hCTR funct. EC50 [1] [nM],Ratio hCT/hAmylin binding [2]
"K([AEEA-γGlu-C20 diacid])RCNTATCATQRLANFLRHSSPNFGAIPSSTNVGSHTY-NH2 (disulfide 3-8; N-terminus assumed; SMILES CC[C@H](C)[C@H](NC(=O)[C@H](C)NC(=O)CNC(=O)[C@H](Cc1ccccc1)NC(=O)[C@H](CC(N)=O)NC(=O)[C@@H]1CCCN1C(=O)[C@H](CO)NC(=O)[C@H](CO)NC(=O)[C@H](Cc1c[nH]cn1)NC(=O)[C@H](CCCNC(=N)N)NC(=O)[C@H](CC(C)C)NC(=O)[C@H](Cc1ccccc1)NC(=O)[C@H](CC(N)=O)NC(=O)[C@H](C)NC(=O)[C@H](CC(C)C)NC(=O)[C@H](CCCNC(=N)N)NC(=O)[C@H](CCC(N)=O)NC(=O)[C@@H](NC(=O)[C@H](C)NC(=O)[C@@H]1CSSC[C@H](NC(=O)[C@H](CCCNC(=N)N)NC(=O)[C@@H](N)CCCCNC(=O)COCCOCCNC(=O)CC[C@H](NC(=O)CCCCCCCCCCCCCCCCCCC(=O)O)C(=O)O)C(=O)N[C@@H](CC(N)=O)C(=O)N[C@@H]([C@@H](C)O)C(=O)N[C@@H](C)C(=O)N[C@@H]([C@@H](C)O)C(=O)N1)[C@@H](C)O)C(=O)N1CCC[C@H]1C(=O)N[C@@H](CO)C(=O)N[C@@H](CO)C(=O)N[C@H](C(=O)N[C@@H](CC(N)=O)C(=O)N[C@H](C(=O)NCC(=O)N[C@@H](CO)C(=O)N[C@@H](Cc1c[nH]cn1)C(=O)N[C@H](C(=O)N[C@@H](Cc1ccc(O)cc1)C(N)=O)[C@@H](C)O)C(C)C)[C@@H](C)O, analogue of human amylin, extended by Lys at the N-terminus; also called compound 45)",10.1,–
"KCNTATCATQRLAEFLRHSSPNFGAIPSSTNVGSNTY (C20 diacid-gGlu acylated on the alpha amino group of the N-terminal residue (Lys 1); disulfide Cys2-Cys7; C-terminal amide, Derivative of human amylin; also called compound 9) [N^α1-[(4S)-4-carboxy-4-(19-carboxynonadecanoylamino)butanoyl]-[Glu14,Arg17,Pro21,Pro27]-h-amylin]",–,8
"{C20 diacid-γGlu}-KCNTATCATQRLADFLRHSSPNFGAIPSSTNVGSNTP-NH2 (disulfide 2-7; SMILES CC[C@H](C)[C@H](NC(=O)[C@H](C)NC(=O)CNC(=O)[C@H](Cc1ccccc1)NC(=O)[C@H](CC(N)=O)NC(=O)[C@@H]1CCCN1C(=O)[C@H](CO)NC(=O)[C@H](CO)NC(=O)[C@H](Cc1c[nH]cn1)NC(=O)[C@H](CCCNC(=N)N)NC(=O)[C@H](CC(C)C)NC(=O)[C@H](Cc1ccccc1)NC(=O)[C@H](CC(=O)O)NC(=O)[C@H](C)NC(=O)[C@H](CC(C)C)NC(=O)[C@H](CCCNC(=N)N)NC(=O)[C@H](CCC(N)=O)NC(=O)[C@@H](NC(=O)[C@H](C)NC(=O)[C@@H]1CSSC[C@H](NC(=O)[C@H](CCCCN)NC(=O)CC[C@H](NC(=O)CCCCCCCCCCCCCCCCCCC(=O)O)C(=O)O)C(=O)N[C@@H](CC(N)=O)C(=O)N[C@@H]([C@@H](C)O)C(=O)N[C@@H](C)C(=O)N[C@@H]([C@@H](C)O)C(=O)N1)[C@@H](C)O)C(=O)N1CCC[C@H]1C(=O)N[C@@H](CO)C(=O)N[C@@H](CO)C(=O)N[C@H](C(=O)N[C@@H](CC(N)=O)C(=O)N[C@H](C(=O)NCC(=O)N[C@@H](CO)C(=O)N[C@@H](CC(N)=O)C(=O)N[C@H](C(=O)N1CCC[C@H]1C(N)=O)[C@@H](C)O)C(C)C)[C@@H](C)O, Derivative of human amylin; also called compound 10)",–,1.2
"{C20 diacid-γGlu-γGlu}-KCNTATCATQRLAEFLRHSSPNFGAIPSSTNVGSNTP-NH2 (disulfide 2-7; SMILES CC[C@H](C)[C@H](NC(=O)[C@H](C)NC(=O)CNC(=O)[C@H](Cc1ccccc1)NC(=O)[C@H](CC(N)=O)NC(=O)[C@@H]1CCCN1C(=O)[C@H](CO)NC(=O)[C@H](CO)NC(=O)[C@H](Cc1c[nH]cn1)NC(=O)[C@H](CCCNC(=N)N)NC(=O)[C@H](CC(C)C)NC(=O)[C@H](Cc1ccccc1)NC(=O)[C@H](CCC(=O)O)NC(=O)[C@H](C)NC(=O)[C@H](CC(C)C)NC(=O)[C@H](CCCNC(=N)N)NC(=O)[C@H](CCC(N)=O)NC(=O)[C@@H](NC(=O)[C@H](C)NC(=O)[C@@H]1CSSC[C@H](NC(=O)[C@H](CCCCN)NC(=O)CC[C@H](NC(=O)CC[C@H](NC(=O)CCCCCCCCCCCCCCCCCCC(=O)O)C(=O)O)C(=O)O)C(=O)N[C@@H](CC(N)=O)C(=O)N[C@@H]([C@@H](C)O)C(=O)N[C@@H](C)C(=O)N[C@@H]([C@@H](C)O)C(=O)N1)[C@@H](C)O)C(=O)N1CCC[C@H]1C(=O)N[C@@H](CO)C(=O)N[C@@H](CO)C(=O)N[C@H](C(=O)N[C@@H](CC(N)=O)C(=O)N[C@H](C(=O)NCC(=O)N[C@@H](CO)C(=O)N[C@@H](CC(N)=O)C(=O)N[C@H](C(=O)N1CCC[C@H]1C(N)=O)[C@@H](C)O)C(C)C)[C@@H](C)O, Derivative of human amylin; also called compound 14)",–,2.2
"{C20 diacid-γGlu}-KCNTATCATQRLAEFLRHSSPNFGAIPSSTNVGSDTP-NH2 (disulfide 2-7; SMILES CC[C@H](C)[C@H](NC(=O)[C@H](C)NC(=O)CNC(=O)[C@H](Cc1ccccc1)NC(=O)[C@H](CC(N)=O)NC(=O)[C@@H]1CCCN1C(=O)[C@H](CO)NC(=O)[C@H](CO)NC(=O)[C@H](Cc1c[nH]cn1)NC(=O)[C@H](CCCNC(=N)N)NC(=O)[C@H](CC(C)C)NC(=O)[C@H](Cc1ccccc1)NC(=O)[C@H](CCC(=O)O)NC(=O)[C@H](C)NC(=O)[C@H](CC(C)C)NC(=O)[C@H](CCCNC(=N)N)NC(=O)[C@H](CCC(N)=O)NC(=O)[C@@H](NC(=O)[C@H](C)NC(=O)[C@@H]1CSSC[C@H](NC(=O)[C@H](CCCCN)NC(=O)CC[C@H](NC(=O)CCCCCCCCCCCCCCCCCCC(=O)O)C(=O)O)C(=O)N[C@@H](CC(N)=O)C(=O)N[C@@H]([C@@H](C)O)C(=O)N[C@@H](C)C(=O)N[C@@H]([C@@H](C)O)C(=O)N1)[C@@H](C)O)C(=O)N1CCC[C@H]1C(=O)N[C@@H](CO)C(=O)N[C@@H](CO)C(=O)N[C@H](C(=O)N[C@@H](CC(N)=O)C(=O)N[C@H](C(=O)NCC(=O)N[C@@H](CO)C(=O)N[C@@H](CC(=O)O)C(=O)N[C@H](C(=O)N1CCC[C@H]1C(N)=O)[C@@H](C)O)C(C)C)[C@@H](C)O, Derivative of human amylin; also called compound 11)",–,1
"{C20 diacid-γGlu}-KCNTATCATQRLAEFLRHSSPNFGAIPSSTNVGSNTP-NH2 (disulfide 2-7, Derivative of human amylin; also called compound 8)",–,0.5
"K([γGlu-C20 diacid])CNTATCATQRLANFLRHSSPNFGAIPSSTNVGSNTY-NH2 (disulfide 2-7; N-terminus assumed; SMILES CC[C@H](C)[C@H](NC(=O)[C@H](C)NC(=O)CNC(=O)[C@H](Cc1ccccc1)NC(=O)[C@H](CC(N)=O)NC(=O)[C@@H]1CCCN1C(=O)[C@H](CO)NC(=O)[C@H](CO)NC(=O)[C@H](Cc1c[nH]cn1)NC(=O)[C@H](CCCNC(=N)N)NC(=O)[C@H](CC(C)C)NC(=O)[C@H](Cc1ccccc1)NC(=O)[C@H](CC(N)=O)NC(=O)[C@H](C)NC(=O)[C@H](CC(C)C)NC(=O)[C@H](CCCNC(=N)N)NC(=O)[C@H](CCC(N)=O)NC(=O)[C@@H](NC(=O)[C@H](C)NC(=O)[C@@H]1CSSC[C@H](NC(=O)[C@@H](N)CCCCNC(=O)CC[C@H](NC(=O)CCCCCCCCCCCCCCCCCCC(=O)O)C(=O)O)C(=O)N[C@@H](CC(N)=O)C(=O)N[C@@H]([C@@H](C)O)C(=O)N[C@@H](C)C(=O)N[C@@H]([C@@H](C)O)C(=O)N1)[C@@H](C)O)C(=O)N1CCC[C@H]1C(=O)N[C@@H](CO)C(=O)N[C@@H](CO)C(=O)N[C@H](C(=O)N[C@@H](CC(N)=O)C(=O)N[C@H](C(=O)NCC(=O)N[C@@H](CO)C(=O)N[C@@H](CC(N)=O)C(=O)N[C@H](C(=O)N[C@@H](Cc1ccc(O)cc1)C(N)=O)[C@@H](C)O)C(C)C)[C@@H](C)O, analogue of human amylin; also called compound 48) [N^ε1-[(4S)-4-carboxy-4-(19-carboxynonadecanoylamino)butanoyl]-[Arg17,Pro21,Pro27]-h-amylin]",1.97,–

# Source: patent US20140087995A1 (published 2014)
